This is an account of results in paper PMC9279676, “ERK2 MAP kinase regulates SUFU binding by multisite phosphorylation of GLI1” (Life Science Alliance, 2022).

In general, Kd refers to the concentration at which binding is half-saturated.

B1: GLI1_(1-232), wild type, 35S-radiolabeled [modified: [35S]-methionine label; [35S]-methionine label] [human] / GST-SUFU (fusion of GST to full-length human SUFU) [human] (parent complex)
chain 1: MFNSMTPPPISSYGEPCCLRPLPSQGAPSVGTEGLSGPPFCHQANLMSGPHSYGPARETNSCTEGPLFSSPRSAVKLTKKRALSISPLSDASLDLQTVIRTSPSSLVAFINSRCTSPGGSYGHLSIGTMSPSLGFPAQMNHQKGPSPSFGVQPCGPHDSARGGMIPHPQSRGPFPTCQLKSELDMLVGKCREEPLEGDMSSPNSTGIQDPLLGMLDGREDLEREEKREPESV
chain 2: MAELRPSGAPGPTAPPAPGPTAPPAFASLFPPGLHAIYGECRRLYPDQPNPLQVTAIVKYWLGGPDPLDYVSMYRNVGSPSANIPEHWHYISFGLSDLYGDNRVHEFTGTDGPSGFGFELTFRLKRETGESAPPTWPAELMQGLARYVFQSENTFCSGDHVSWHSPLDNSESRIQHMLLTEDPQMQPVQTPFGVVTFLQIVGVCTEELHSAQQWNGQGILELLRTVPIAGGPWLITDMRRGETIFEIDPHLQERVDKGIETDGSNLSGVSAKCAWDDLSRPPEDDEDSRSICIGTQPRRLSGKDTEQIRETLRRGLEINSKPVLPPINPQRQNGLAHDRAPSRKDSLESDSSTAIIPHELIRTRQLESVHLKFNQESGALIPLCLRGRLLHGRHFTYKSITGDMAITFVSTGVEGAFATEEHPYAAHGPWLQILLTEEFVEKMLEDLEDLTSPEEFKLPKEYSWPEKKLKVSILPDVVFDSPLH

In the assay the parent is B1. The experiment in a line: GST-SUFU pull-down binding assay with 35S-radiolabeled in vitro-translated GLI1; parent: 8 nM.
As to chain 1 S130E, the Kd is 21 nM.
Take chain 1 S102E: the dissociation constant Kd was determined as 67 nM.
